Target: T1, Q324H MUTYH (human, UniProt Q9UIF7-3 1-535, Q324H)
T1 sequence (looked up): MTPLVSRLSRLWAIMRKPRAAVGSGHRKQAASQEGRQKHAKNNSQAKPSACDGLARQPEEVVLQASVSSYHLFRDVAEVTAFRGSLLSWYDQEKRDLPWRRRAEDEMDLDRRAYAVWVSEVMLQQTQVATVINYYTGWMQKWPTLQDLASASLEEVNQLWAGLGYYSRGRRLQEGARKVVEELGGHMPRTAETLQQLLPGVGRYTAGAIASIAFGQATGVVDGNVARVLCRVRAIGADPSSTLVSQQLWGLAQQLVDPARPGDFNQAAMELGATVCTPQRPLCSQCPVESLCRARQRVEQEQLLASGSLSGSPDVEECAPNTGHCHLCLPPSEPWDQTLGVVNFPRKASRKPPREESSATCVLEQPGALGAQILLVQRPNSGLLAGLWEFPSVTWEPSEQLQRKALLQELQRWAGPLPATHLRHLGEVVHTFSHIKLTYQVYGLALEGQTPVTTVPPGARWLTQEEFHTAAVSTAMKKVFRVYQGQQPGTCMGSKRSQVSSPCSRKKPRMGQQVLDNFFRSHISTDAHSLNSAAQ
Assay: pull-down

- percent decrease of the interaction relative to WT MUTYH: ~20%
B1: Flag-tagged Hus1 (natural protein, UniProt O60921 1-280, looked up)
chain: MKFRAKIVDGACLNHFTRISNMIAKLAKTCTLRISPDKLNFILCDKLANGGVSMWCELEQENFFNEFQMEGVSAENNEIYLELTSENLSRALKTAQNARALKIKLTNKHFPCLTVSVELLSMSSSSRIVTHDIPIKVIPRKLWKDLQEPVVPDPDVSIYLPVLKTMKSVVEKMKNISNHLVIEANLDGELNLKIETELVCVTTHFKDLGNPPLASESTHEDRNVEHMAEVHIDIRKLLQFLAGQQVNPTKALCNIVNNKMVHFDLLHEDVSLQYFIPALS
